Test results from paper PMC8987015, “Studying Acetylation of Aconitase Isozymes by Genetic Code Expansion” (Frontiers in Chemistry, 2022).

B1: AcnB (Escherichia coli K-12) (protein)
chain: MLEEYRKHVAERAAEGIAPKPLDANQMAALVELLKNPPAGEEEFLLDLLTNRVPPGVDEAAYVKAGFLAAIAKGEAKSPLLTPEKAIELLGTMQGGYNIHPLIDALDDAKLAPIAAKALSHTLLMFDNFYDVEEKAKAGNEYAKQVMQSWADAEWFLNRPALAEKLTVTVFKVTGETNTDDLSPAPDAWSRPDIPLHALAMLKNAREGIEPDQPGVVGPIKQIEALQQKGFPLAYVGDVVGTGSSRKSATNSVLWFMGDDIPHVPNKRGGGLCLGGKIAPIFFNTMEDAGALPIEVDVSNLNMGDVIDVYPYKGEVRNHETGELLATFELKTDVLIDEVRAGGRIPLIIGRGLTTKAREALGLPHSDVFRQAKDVAESDRGFSLAQKMVGRACGVKGIRPGAYCEPKMTSVGSQDTTGPMTRDELKDLACLGFSADLVMQSFCHTAAYPKPVDVNTHHTLPDFIMNRGGVSLRPGDGVIHSWLNRMLLPDTVGTGGDSHTRFPIGISFPAGSGLVAFAAATGVMPLDMPESVLVRFKGKMQPGITLRDLVHAIPLYAIKQGLLTVEKKGKKNIFSGRILEIEGLPDLKVEQAFELTDASAERSAAGCTIKLNKEPIIEYLNSNIVLLKWMIAEGYGDRRTLERRIQGMEKWLANPELLEADADAEYAAVIDIDLADIKEPILCAPNDPDDARPLSAVQGEKIDEVFIGSCMTNIGHFRAAGKLLDAHKGQLPTRLWVAPPTRMDAAQLTEEGYYSVFGKSGARIEIPGCSLCMGNQARVADGATVVSTSTRNFPNRLGTGANVFLASAELAAVAALIGKLPTPEEYQTYVAQVDKTAVDTYRYLNFNQLSQYTEKADGVIFQTAV
B2: AcnA (Escherichia coli K-12) (protein)
chain: SSTLREASKDTLQAKDKTYHYYSLPLAAKSLGDITRLPKSLKVLLENLLRWQDGNSVTEEDIHALAGWLKNAHADREIAYRPARVLMQDFTGVPAVVDLAAMREAVKRLGGDTAKVNPLSPVDLVIDHSVTVDRFGDDEAFEENVRLEMERNHERYVFLKWGKQAFSRFSVVPPGTGICHQVNLEYLGKAVWSELQDGEWIAYPDTLVGTDSHTTMINGLGVLGWGVGGIEAEAAMLGQPVSMLIPDVVGFKLTGKLREGITATDLVLTVTQMLRKHGVVGKFVEFYGDGLDSLPLADRATIANMSPEYGATCGFFPIDAVTLDYMRLSGRSEDQVELVEKYAKAQGMWRNPGDEPIFTSTLELDMNDVEASLAGPKRPQDRVALPDVPKAFAASNELEVNATHKDRQPVDYVMNGHQYQLPDGAVVIAAITSCTNTSNPSVLMAAGLLAKKAVTLGLKRQPWVKASLAPGSKVVSDYLAKAKLTPYLDELGFNLVGYGCTTCIGNSGPLPDPIETAIKKSDLTVGAVLSGNRNFEGRIHPLVKTNWLASPPLVVAYALAGNMNINLASEPIGHDRKGDPVYLKDIWPSAQEIARAVEQVSTEMFRKEYAEVFEGTAEWKGINVTRSDTYGWQEDSTYIRLSPFFDEMQATPAPVEDIHGARILAMLGDSVTTDHISPAGSIKPDSPAGRYLQGRGVERKDFNSYGSRRGNHEVMMRGTFANIRIRNEMVPGVEGGMTRHLPDSDVVSIYDAAMRYKQEQTPLAVIAGKEYGSGSSRDWAAKGPRLLGIRVVIAESFERIHRSNLIGMGILPLEFPQGVTRKTLGLTGEEKIDIGDLQNLQPGATVPVTLTRADGSQEVVPCRCRIDTATELTYYQNDGILHYVIRNMLK

Tests used:
AcnA = AcnA (Escherichia coli, UniProt P25516); conditions: citrate 0.1 to 50 mM; enzyme reactivated with 1 mM (NH4)2Fe(SO4)2 and 5 mM DTT, 50 mM Tris pH 8
AcnB = AcnB (Escherichia coli, UniProt P36683); conditions: citrate 0.1 to 50 mM; enzyme reactivated with 1 mM (NH4)2Fe(SO4)2 and 5 mM DTT, 50 mM Tris pH 8
purified protein = substrate: O=C(O)CC(O)(CC(=O)O)C(=O)O; test: purified protein; conditions: citrate 0.1 to 50 mM, enzyme reactivated with 1 mM (NH4)2Fe(SO4)2 and 5 mM DTT, 50 mM Tris pH 8

Molecule	Km (AcnA)	Km (AcnB)	Km (purified protein)	kcat (purified protein)
O=C(O)CC(O)(CC(=O)O)C(=O)O [citrate]	3.45 ± 0.23 mM	9.76 ± 0.67 mM		
B1			9.34 ± 0.72 mM	63.5 ± 4.52 s⁻¹
B2			1.64 ± 0.21 mM	20.6 ± 1.62 s⁻¹
